The record followed here is US20210047432A1 (DIACCURATE, published 2021).

Test [1] deals with T1, recombinant human sPLA2-GIB (mature secreted group IB pancreatic phospholipase A2) (human, UniProt P04054 23-148).
T1 construct: also called sPLA2-IB; PLA2-GIB mature form
Nature of the test: competitive ELISA: constant antibody premixed with dilutions of soluble antigen, free antibody caught on antigen-coated plate. On the procedure: (§1) Binding affinities of the humanized antibodies to pro-sPLA2-GIB and sPLA2-GIB were measured by plate-based competition immunoassay. For the competition ELISA, briefly, constant amounts of antibody at different levels were premixed with serial dilutions of antigen protein, human sPLA2-GIB or pro-sPLA2-GIB, ranging from 0 to 10 μg/ml, and incubated for two hours at room temperature to reach pseudo-binding equilibrium between the antibody and antigen. These solutions were then transferred to 96-well sPLA2-GIB or pro-sPLA2-GIB pre-coated plates to allow the free-antibody in the mixtures to bind to plate-coated sPLA2-GIB or pro-sPLA2-GIB. The plates were typically coated with 30 to 100 ng of human sPLA2-GIB or pro-sPLA2-GIB protein in PBS solution overnight at 4° C. followed by BSA nonspecific blocking. After washing off excess antibody in solution, plate-bound antibodies were detected with an HRP-conjugated goat anti-mouse IgG or IgA polyclonal antibody reagent and developed using colorimetric substrate. The dependency of the signals on the concentrations of antigen in solution was analyzed with a 4-parameter fit analysis using Prism™ software (Graph Pad) and reported as IC50.
(§2) The respective binding affinities of the humanized antibodies to human pro-sPLA2-GIB and human sPLA2-GIB were measured by plate-based competition immunoassay. Briefly, constant amounts of antibody at different levels were premixed with serial dilutions of antigen proteins to reach pseudo-binding equilibrium between the antibody and antigen. These solutions were then transferred to antigen pre-coated plates to allow the free-antibody in the mixtures to bind to plate-coated sPLA2-GIB or pro-sPLA2-GIB. Plate-bound antibodies were detected with an HRP-conjugated polyclonal antibody. Data were fitted with a 4PL logistic non-linear regression model and the relative IC50 values were estimated from the model (Table 4).

The target of test [2] is T2, recombinant human pro-sPLA2-GIB (human, UniProt P04054 16-148).
T2 construct: also called pro-sPLA2-IB; proPLA2-GIB
The test is described as above. On the procedure: as §1, §2

Test [3] deals with immune complex of #2B2 with sPLA2-GIB (human, UniProt P04054 23-148). Kind of test: flow cytometry, antibody-antigen immune complex on CHO cells expressing the receptor. Here is the method:
Antibody-antigen immune complex were generated by co-incubation of 10 µg/ml of humanized antibodies and 5 μg/ml of sPLA2-GIB for 30 min at 37° C. Immune complexes were then incubated with 1×10⁵ CHO cells stably expressing human FcγRs for 30 min on ice. The cells were then washed, detached, fixed, and analyzed by flow cytometry (FACSCalibur; BD Biosciences).
The binding of monomeric #2B, #2B1 and #2B2 to human FcγRs was tested by flow cytometry by incubating the mAbs with CHO cells stably expressing human FcγRI, FcγRIIA (H131), FcγRIIA(R131), FcγRIIB, FcγRIIIA(F176), FcγRIIIA(V176), FcγRIIIB(NA1), FcγRIIIB(NA2), and FcγRIIIB(SH), (REF P. Bruhns). As presented in FIG. 9, #2B is binding to hFcγRI and hFcγRIIIA(V176) only, whereas no monomeric binding of #2B1 and #2B2 to all tested hFcγRs was observed. Antibody-antigen immune complex was tested by first incubating the mAb with the antigen and then, incubating the immune complexes formed with CHO cells stably expressing human FcγRs. The immune complexe of #2B is binding to all tested hFcγRs, except hFcγRIIB (FIG. 10). Weak binding is observed for immune complex of #2B1 to hFcγRIIIA(V176) (data not shown), whereas no immune complex binding of #2B2 to any tested hFcγRs (data not shown).

immune complex of #2B2 with sPLA2-GIB, sequence (P04054 23-148, one chain of several): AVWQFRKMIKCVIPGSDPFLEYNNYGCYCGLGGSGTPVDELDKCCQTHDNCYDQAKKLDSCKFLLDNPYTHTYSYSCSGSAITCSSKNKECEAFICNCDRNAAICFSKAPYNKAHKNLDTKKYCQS
T2 sequence (P04054 16-148): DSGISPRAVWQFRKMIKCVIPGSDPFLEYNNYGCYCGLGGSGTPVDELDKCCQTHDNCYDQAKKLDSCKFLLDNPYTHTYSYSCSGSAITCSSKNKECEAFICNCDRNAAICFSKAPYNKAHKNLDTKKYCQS
T1 sequence (P04054 23-148): as the sequence (P04054 23-148, one chain of several) above

B1: humanized antibody #2A (antibody, V domains shown)
VH: QVQLVQSGAEVKKPGASVKVSCKASGYTFTNYWIHWVRRAPGQGLEWIGNIDPSDTRTHYNQKFKDRATLTVDKSTSTAYMELSSLRSEDTAVYYCARQTLYYEALDYWGQGTLVTVSS
VL: EIVMTQSPATLSVSPGERATLSCKASQDVSTAVAWYQEKPGQAPRLLIYWASTRHTGIPARFSGSRSGTEYTLTISSLQSEDFAVYYCQQDYSTPPTFGGGTKVEIK
notes: CDR-grafted 14G9; version A keeps Arg H39 and Glu L38; also called Ab #2A
Consider B1, for which the IC50 in test [1] turned out to be 1.9 nM; in test [2], 216 nM.

B2: human FcγRIIA (H131) (receptor, UniProt P12318 34-317, looked up)
chain: QAAAPPKAVLKLEPPWINVLQEDSVTLTCQGARSPESDSIQWFHNGNLIPTHTQPSYRFKANNNDSGEYTCQTGQTSLSDPVHLTVLSEWLVLQTPHLEFQEGETIMLRCHSWKDKPLVKVTFFQNGKSQKFSHLDPTFSIPQANHSHSGDYHCTGNIGYTLFSSKPVTITVQVPSMGSSSPMGIIVAVVIATAVAAIVAAVVALIYCRKKRISANSTDPVKAAQFEPPGRQMIAIRKRQLEETNNDYETADGGYMTLNPRAPTDDDKNIYLTLPPNDHVNSNN
notes: whole, on cells; Allelic variant with His at 131 (mature numbering as printed)
With B2, in test [3], the binding result was “no binding”.

B3: human FcγRIIIB(NA2) (receptor, UniProt O75015 17-200, looked up)
chain: GMRTEDLPKAVVFLEPQWYSVLEKDSVTLKCQGAYSPEDNSTQWFHNESLISSQASSYFIDAATVNDSGEYRCQTNLSTLSDPVQLEVHIGWLLLQAPRWVFKEEDPIHLRCHSWKNTALHKVTYLQNGKDRKYFHHNSDFHIPKATLKDSGSYFCRGLVGSKNVSSETVNITITQGLAVSTIS
notes: whole, on cells
Take B3: in test [3], the binding result is recorded as “no binding”.

B4: human FcγRIIIB(NA1) (receptor, UniProt O75015 17-200, looked up)
chain: GMRTEDLPKAVVFLEPQWYRVLEKDSVTLKCQGAYSPEDNSTQWFHNENLISSQASSYFIDAATVDDSGEYRCQTNLSTLSDPVQLEVHVGWLLLQAPRWVFKEEDPIHLRCHSWKNTALHKVTYLQNGKDRKYFHHNSDFHIPKATLKDSGSYFCRGLVGSKNVSSETVNITITQGLAVSTIS
notes: whole, on cells
Turning to B4, the binding result in test [3] was “no binding”.

B5: human FcγRIIIB(SH) (receptor, UniProt O75015 17-200, looked up)
chain: GMRTEDLPKAVVFLEPQWYSVLEKDSVTLKCQGAYSPEDNSTQWFHNESLISSQASSYFIDDATVNDSGEYRCQTNLSTLSDPVQLEVHIGWLLLQAPRWVFKEEDPIHLRCHSWKNTALHKVTYLQNGKDRKYFHHNSDFHIPKATLKDSGSYFCRGLVGSKNVSSETVNITITQGLAVSTIS
notes: whole, on cells
As for B5, the binding result in test [3] is recorded as “no binding”.

B6: human FcγRIIA(R131) (receptor, UniProt P12318 34-317, looked up)
chain: QAAAPPKAVLKLEPPWINVLQEDSVTLTCQGARSPESDSIQWFHNGNLIPTHTQPSYRFKANNNDSGEYTCQTGQTSLSDPVHLTVLSEWLVLQTPHLEFQEGETIMLRCHSWKDKPLVKVTFFQNGKSQKFSRLDPTFSIPQANHSHSGDYHCTGNIGYTLFSSKPVTITVQVPSMGSSSPMGIIVAVVIATAVAAIVAAVVALIYCRKKRISANSTDPVKAAQFEPPGRQMIAIRKRQLEETNNDYETADGGYMTLNPRAPTDDDKNIYLTLPPNDHVNSNN
notes: whole, on cells; Allelic variant with Arg at 131 (so in the source)
Regarding B6, in test [3], the binding result is “no binding”.
